Reference: article PMC4368477
pKd: −log10 of the molar value.

Target: HA head of H1N1 A/Solomon Islands/3/2006 (Influenza A virus, A/Solomon Islands/3/2006 (H1N1))
Test: BLI

Substance	pKd	koff [s⁻¹]	kon [M⁻¹ s⁻¹]
CH65 Fab with light-chain reversion R29S	5.92	–	–
CH67 Fab with light-chain reversion R29S	6.43	0.019	52000
CH67 Fab with light-chain reversions D33H and R31S	5.82	0.067	–
